“Also recorded” adds a separate entry of the source. The star is where a group is joined. Biotin = O=C1N[C@H]2[C@H](CS[C@H]2CCCCC(=O)*)N1
T1: elastin (Bos taurus, UniProt P04985)
T1 construct: purchased Sigma-Aldrich
T1 sequence (P04985 27-747): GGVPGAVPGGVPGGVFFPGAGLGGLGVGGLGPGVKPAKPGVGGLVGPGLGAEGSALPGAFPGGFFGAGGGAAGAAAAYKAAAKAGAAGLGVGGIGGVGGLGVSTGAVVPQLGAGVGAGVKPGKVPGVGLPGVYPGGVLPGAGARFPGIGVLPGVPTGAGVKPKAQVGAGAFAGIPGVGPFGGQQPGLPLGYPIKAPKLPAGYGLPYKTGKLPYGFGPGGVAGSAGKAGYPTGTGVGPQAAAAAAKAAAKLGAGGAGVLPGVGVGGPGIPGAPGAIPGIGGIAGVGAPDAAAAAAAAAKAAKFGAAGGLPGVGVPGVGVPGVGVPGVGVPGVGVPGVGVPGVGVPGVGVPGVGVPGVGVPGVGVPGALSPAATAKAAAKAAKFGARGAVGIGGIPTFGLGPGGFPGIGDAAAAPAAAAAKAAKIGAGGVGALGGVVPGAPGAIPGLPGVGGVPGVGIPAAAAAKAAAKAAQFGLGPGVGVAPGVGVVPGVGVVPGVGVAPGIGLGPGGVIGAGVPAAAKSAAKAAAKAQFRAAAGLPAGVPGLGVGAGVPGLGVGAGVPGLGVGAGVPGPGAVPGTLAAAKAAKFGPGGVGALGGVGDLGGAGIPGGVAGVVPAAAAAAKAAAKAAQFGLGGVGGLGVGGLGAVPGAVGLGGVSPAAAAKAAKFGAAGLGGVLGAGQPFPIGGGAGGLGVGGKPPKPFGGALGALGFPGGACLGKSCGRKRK

T2: elastin (bovine) (bovine, UniProt P04985 27-747, limits assumed)
T2 construct: Coated and dried on plates at 10 ug/cm2
T2 sequence (looked up): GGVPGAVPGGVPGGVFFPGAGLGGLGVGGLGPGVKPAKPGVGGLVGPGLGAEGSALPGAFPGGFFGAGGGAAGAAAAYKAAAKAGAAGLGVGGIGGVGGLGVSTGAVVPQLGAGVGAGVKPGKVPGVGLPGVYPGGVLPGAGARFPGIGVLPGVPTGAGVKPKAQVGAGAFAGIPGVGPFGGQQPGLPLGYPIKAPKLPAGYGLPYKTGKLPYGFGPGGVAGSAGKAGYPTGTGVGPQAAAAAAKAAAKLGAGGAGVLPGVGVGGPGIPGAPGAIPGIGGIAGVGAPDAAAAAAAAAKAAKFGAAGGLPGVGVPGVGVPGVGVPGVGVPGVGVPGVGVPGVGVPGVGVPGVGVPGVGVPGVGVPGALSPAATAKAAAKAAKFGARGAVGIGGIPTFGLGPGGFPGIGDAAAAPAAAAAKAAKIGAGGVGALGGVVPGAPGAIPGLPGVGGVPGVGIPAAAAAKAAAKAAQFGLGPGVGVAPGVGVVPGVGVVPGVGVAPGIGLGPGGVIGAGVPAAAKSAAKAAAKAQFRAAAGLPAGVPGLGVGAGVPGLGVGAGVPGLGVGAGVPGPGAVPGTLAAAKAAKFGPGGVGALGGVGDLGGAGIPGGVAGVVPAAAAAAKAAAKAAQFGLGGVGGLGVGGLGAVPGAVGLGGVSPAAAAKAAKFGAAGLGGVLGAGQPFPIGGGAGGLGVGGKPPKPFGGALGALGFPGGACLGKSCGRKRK


Columns and labels:
[1] = Circular dichroism (CD) of peptides; format: physicochemical; details: 20 mM Sodium Cacodylate; for Ellipticity ratio (222 nm/208 nm) / Ellipticity 208 nm / Ellipticity 222 nm: 1.25 mg/mL; for Ellipticity 208 nm / Ellipticity 222 nm: CD data given as [θ]M×10^−3; for wavelength Minimum of CD profile: 5.0 mg/mL
Protocol: Data is presented in ellipticity ([θ]M×10^−3) as a function of spectral wavelength (λ).
Sodium cacodylate (SC), 20 mM pH 7.4, without and with 20% TFE was used to reduce phosphate related background signal and enhance detected structures. Circular dichroism (CD) data were collected in millidegrees, 0, and converted to molar ellipticity, [θ]M, and are expressed in units of deg×cm^2×dmol^−1. Scan speeds and digital integration times were 500 nm/min and 1 second, respectively. The data on the Y axis of the CD plots is [θ]M×10^−3. […] Consequently, CD signals are reported in the 190-260 nm range.

[2] = ECM specificity binding test, hyaluronic acid coating; details: 5.0 mg/ml peptide, FIG. 4
Protocol: (§1) Peptides were incubated 24 hours at 37° C. on collagens I-IV, elastin, hyaluronic acid, and Geltrex. Coatings (10 pig/cm^2) were previously dried overnight in milli-Q water. Overall significance was assessed using analysis of variance, with Tukey's multiple comparison post-hoc analysis between ECM groups where n=4.
(§2) Hyaluronic acid, collagens I, II, III, and IV, elastin, and Geltrex were coated onto 96-well black plates (medium binding affinity) at 10 μg/cm^2 and were dried in milli-Q water at room temperature. N-termini biotinylated peptides were added to coated plates at 0, 1, 2.5, 5 and 10 mg/ml overnight at 37° C. in phosphate buffered saline (PBS), pH 7.4, after which the plates were washed three times with PBS. Fluorescent streptavidin-488 (4 μg/mL) was added to each well and incubated at 37° C. temperature for 24 hours, then thoroughly washed with PBS. The plates were read with a fluorescence microplate reader for fluorescence intensity (Ex 490 nm, Em 525 nm). All data were normalized to the background fluorescence intensity of Streptavidin-488.

[3] = Concentration-dependent peptide binding to hyaluronic acid coating (biotin-streptavidin fluorescence)
Protocol: Peptides were incubated 24 hours at 37° C. Coatings (10 μg/cm^2) were previously dried overnight in milli-Q water. Overall significance was assessed using analysis of variance, with Tukey's multiple comparison post-hoc analysis between 1-scrm and experimental groups where n=4.
N-termini biotinylated peptides were added to coated plates at 0, 1, 2.5, 5 and 10 mg/ml overnight at 37° C. in phosphate buffered saline (PBS), pH 7.4, after which the plates were washed three times with PBS.

[4] = test system: extracellular matrix (ECM) components: Collagen type I, II, III and IV, elastin, hyaluronic acid and Geltrex; experiment: ECM specificity binding test, whole panel; details: 5.0 mg/ml peptide, FIG. 4
Protocol: as §1, §2

[5] = Transmission electron microscopy (TEM) of peptide nanostructures; format: physicochemical
Protocol: The sample and stain were filter-dried in between steps. Samples were collected 24 hours at 37° C. after 30 minutes of sonication. All TEM was performed on a Philips FEI Technai Spirit G2 electron microscope. Peptides were incubated in both PBS and SC.

elastin = target: T1, elastin; experiment: ECM specificity binding test, elastin coating; parameters: species or system bovine; details: 5.0 mg/ml peptide, FIG. 4
Protocol: as §1
Biotinylated peptides were custom synthesized by ABI Scientific, Inc. (Sterling, VA). Uranyl acetate and TEM grids were from Ted Pella, Inc (Redding, CA). Unless specified otherwise, all water used in these experiments was Milli-Q grade. HA (˜1 MDa), collagen types I (rat), II (chicken), III (human), and IV (mouse), elastin (bovine), deuterium oxide (D2O), acetic acid-d4, sodium acetate-d3, 3-(Trimethylsilyl)propionic-2,2,3,3-d6 (DSS-D6) acid sodium salt, and 2,2,2-trifluoroethanol (TFE) and were obtained from Sigma-Aldrich (St. Louis, MO). Streptavidin (Alexa Fluor 488 conjugate) and Geltrex were obtained from Thermo Fisher Scientific Inc. (Waltham, MA). Sodium hyaluronate (5 and 60 KDa) was purchased from Lifecore Biomedical LLC (Chaska, MN). In reference to terminology, N and C termini is used to describe the amino terminal (N) and the carboxyl terminal (C) of the peptide. The biotinylated peptides are used in every experiment.
as §2

elastin (bovine) = target: T2, elastin (bovine); experiment: plate assay: biotinylated peptide (5.0 mg/ml) on dried ECM coating, streptavidin-488 fluorescence
Protocol: as §1, with “pig/cm²)” for “pig/cm^2)”
as §2, with “N-termini” for “Hyaluronic acid, collagens I, II, III, and IV, elastin, and Geltrex were coated onto 96-well black plates (medium binding affinity) at 10 μg/cm^2 and were dried in milli-Q water at room temperature. N-termini”

| binding to hyaluronic acid in specificity testing [2] | binding to hyaluronic acid with increasing concentrations of peptide (fluorescence intensity) ([3]; 0-10 mg/ml peptide, PBS pH 7.4, 37° C., HA coating 10 μg/cm^2, FIG. 3) | specificity of binding to ECMs [4] | binding to elastin (elastin) | binding result (elastin (bovine)) | Molecule | Ellipticity ratio (222 nm/208 nm) [1] | Ellipticity 208 nm [1] | Ellipticity 222 nm [1] | wavelength Minimum of CD profile [1] [nm] | Ellipticity ratio (222 nm/208 nm) ([1]; 20% TFE) | Ellipticity 208 nm ([1]; 20% TFE) | Ellipticity 222 nm ([1]; 20% TFE) | wavelength Minimum of CD profile ([1]; 20% TFE) [nm] | HA binding, overall assessment ([3]; summary and discussion statements) | TEM characterization, Phosphate Buffered Saline (i) ([5]; PBS pH 7.4, 0.5% w/v, 30 minutes sonication, 24 hrs at 37° C.) | nanofiber formation in TEM, overall ([5]; both PBS and sodium cacodylate) |
| --- | --- | --- | --- | --- | --- | --- | --- | --- | --- | --- | --- | --- | --- | --- | --- | --- |
| predominantly | increases dramatically | lower specificity than 17x-3 | moderately |  | LKTKIKIIVKTKSSAKLRSKLVNSHKI [Peptide 4, 8h-2 variant] | 0.54 | −112 | −60.3 | 225 | 0.97 | −364 | −353 | 224 | comparable binding; also recorded: HA specific and robust binders | fibers that contain two striations (fibrils) | consistent nanofibers; also recorded: predominantly form fibers with striations and furthermore form a mesh network |
|  |  |  |  | binds | Biotin-TNLRNKYTFLARARANLAVRNKQNIKS-OH (SMILES CC[C@H](C)[C@H](NC(=O)[C@H](CC(N)=O)NC(=O)[C@H](CCC(N)=O)NC(=O)[C@H](CCCCN)NC(=O)[C@H](CC(N)=O)NC(=O)[C@H](CCCNC(=N)N)NC(=O)[C@@H](NC(=O)[C@H](C)NC(=O)[C@H](CC(C)C)NC(=O)[C@H](CC(N)=O)NC(=O)[C@H](C)NC(=O)[C@H](CCCNC(=N)N)NC(=O)[C@H](C)NC(=O)[C@H](CCCNC(=N)N)NC(=O)[C@H](C)NC(=O)[C@H](CC(C)C)NC(=O)[C@H](Cc1ccccc1)NC(=O)[C@@H](NC(=O)[C@H](Cc1ccc(O)cc1)NC(=O)[C@H](CCCCN)NC(=O)[C@H](CC(N)=O)NC(=O)[C@H](CCCNC(=N)N)NC(=O)[C@H](CC(C)C)NC(=O)[C@H](CC(N)=O)NC(=O)[C@@H](NC(=O)CCCC[C@@H]1SC[C@@H]2NC(=O)N[C@@H]21)[C@@H](C)O)[C@@H](C)O)C(C)C)C(=O)N[C@@H](CCCCN)C(=O)N[C@@H](CO)C(=O)O, Variant of BHP3; biotinylated synthetic peptide; also called BPH4) [Peptide BHP4] |  |  |  |  |  |  |  |  |  |  |  |
|  |  |  |  | binds | Biotin-KTKATVKIKNKQKSVNALKQKIVLLSK-OH (SMILES CC[C@H](C)[C@H](NC(=O)[C@H](CCCCN)NC(=O)[C@@H](NC(=O)[C@@H](NC(=O)[C@H](C)NC(=O)[C@H](CCCCN)NC(=O)[C@@H](NC(=O)[C@H](CCCCN)NC(=O)CCCC[C@@H]1SC[C@@H]2NC(=O)N[C@@H]21)[C@@H](C)O)[C@@H](C)O)C(C)C)C(=O)N[C@@H](CCCCN)C(=O)N[C@@H](CC(N)=O)C(=O)N[C@@H](CCCCN)C(=O)N[C@@H](CCC(N)=O)C(=O)N[C@@H](CCCCN)C(=O)N[C@@H](CO)C(=O)N[C@H](C(=O)N[C@@H](CC(N)=O)C(=O)N[C@@H](C)C(=O)N[C@@H](CC(C)C)C(=O)N[C@@H](CCCCN)C(=O)N[C@@H](CCC(N)=O)C(=O)N[C@@H](CCCCN)C(=O)N[C@H](C(=O)N[C@H](C(=O)N[C@@H](CC(C)C)C(=O)N[C@@H](CC(C)C)C(=O)N[C@@H](CO)C(=O)N[C@@H](CCCCN)C(=O)O)C(C)C)[C@@H](C)CC)C(C)C, Variant of 17x-3; biotinylated synthetic peptide) [Peptide 7c] |  |  |  |  |  |  |  |  |  |  |  |
